Patent US20250314655A1

What was measured:
[1] = biological target: TRBC1 peptide (biotinylated) (human); assay: TRF assay, scFv on biotin-peptide/neutravidin plate
[2] = biological target: TRBC2 peptide (biotinylated) (human); assay: as above

Row | Binder | TRBC1 Binding [1] | TRBC2 Binding [2]
1 | CP_03_G09 (scFv, not shown: small tags and cut ends) scFv: QVQLQQSGPGLVKPSQTLSLTCAISGDSVSSNSAAWNWIRQSPSRGLEWLGRTYYRSKWYNDYAVSVKSRITINPDTSKNQFSLQLNSVTPEDTAVYYCARDQWLANYYYYGMDVWGQGTLVTVSSGGGGSGGGGSGGGASSYELTQPLSVSVALGQTARITCGGNNIGSKNVHWYQQKPGQAPVLVIYRDNNRPSGIPERFSGSNSGNTATLTISKAQAGDEADYYCQVWDSNSWVFGGGTKLTVLGQPAA | 979 TRF units | 
2 | CP_01_D10 (scFv, not shown: small tags and cut ends) scFv: QVQLVESGGGLVQPGRSLRLSCAASGFTFSSYAMHWVRQAPGKGLEWVAVISYDGSSKYYADSVKGRFTISRDNSKNTLYLQMNSLRAEDTAVYYCAKGGGSFGAFDIWGQGTLVTVSSGGGGSGGGGSGGGASDIQMTQSPSSLSASVGDRVTITCRASQSISRYLNWYQQKPGKAPNLLIYAASSLQSGVPSRFSGSGSGTDFTLTISSLQPEDFATYYCQQYNSYPLTFGGGTKLEIKRTAAA |  | 306 TRF units
3 | CP_03_E05 (scFv, not shown: small tags and cut ends) scFv: EVQLVESGGGVVQPGGSLRLSCAASGFTFSSYAMSWVRQAPGKGLEWVSAISGSGGSTYYADSVKGRFSISRDNSKNTLYLQMNSLRAEDTAVYYCARTRSSGAFDIWGQGTLVTVSSGGGGSGGGGSGGGASNFMLTQPHSVSESPGKTVTISCTRSSGSIASKYVQWYQQRPGSSPTTVIYEDNQRPSGVPDRFSGSIDTSSNSASLTISGLRTEDEADYYCHSYDSNNHSVFGGGTKVTVLGQPAA | 1620 TRF units | 
4 | CP_01_C11 (scFv, not shown: small tags and cut ends) scFv: QVQLVESGAEVKKPGASVKVSCKASGYTFTGYYMHWVRQAPGQGLEWMGRINPNSGGTNYAQKFQGRVTMTRDTSISTAYMELSRLRSDDTAVYYCASGGAGWNWGQGTMVTVSSGGGGSGGGGSGGGASNFMLTQPHSVSESPGKTATISCTRSSGSIASNYVQWYQQRPGSAPTTVIYEDNQRPFGVPDRFSGSIDSSSNSASLTISGLKTEDEADYYCQSHDSSNVVFGGGTQLTVLGQPAA |  | 622 TRF units
5 | CP_03_C12 (scFv, not shown: small tags and cut ends) scFv: EVQLVQSGAEVKKPGASVKVSCKASGYTFTGYYMHWVRQAPGQGLEWMGWINPNSGGTNYAQKFQGRVTMTRDTSISTAYMELSSLRSEDTAVYYCARDTGPIDYWGQGTMVTVSSGGGGSGGGGSGGGASDIVMTQTPLSLSVTPGQPASISCKSSQSLLHSDGKTYLYWYLQKPGQPPQLLVYEVSNRFSGVPDKFSGSGSGTDFTLKISRVEAEDVGVYYCMQGIQLPPTFGGGTKVDIKRTAAA | 789 TRF units | 
6 | CP_03_H06 (scFv, not shown: small tags and cut ends) scFv: QVQLVESGGGLVKPGGSLRLSCAASGFTFSDYYMSWIRQAPGKGLEWVSYISSSGSTIYYADSVEGRFTISRDNAKNSLYLQMNSLRTEDTAVYYCARARVGGMDVWGQGTMVTVSSGGGGSGGGGSGGGASNFMLTQPHSVSESPGKTVTISCTRSSGSIASNYVQWYQQRPGSSPTTVIYEDNQRPSGVPDRFSGSIDSSSNSASLTISGLKTEDEADYYCQSFDADNLHVVFGGGTKLTVLGQPAA | 391 TRF units | 

Now from value to binder:

Row | TRBC1 Binding [1] | TRBC2 Binding [2] | Binder
7 | 889 TRF units |  | CP_03_F09 (scFv, not shown: small tags and cut ends) scFv: QMQLVQSGAEVKKPGASVKVSCKASGYTFASYYMHWVRQAPGQGLEWMGIINPSGGSTSYAQKFQGRVTMTRDTSTSTVYMELSRLRSDDTAVYYCASNRGGSYKSVGMDVWGQGTTVTVSSGGGGSGGGGSGGGASNFMLTQPQSVSESPGKTVTISCTRSSGNFASKYVQWYQQRPGSSPTTVIYENYQRPSGVPDRFSGSIDSSSNSATLTISGLKTEDEADYYCQSYDEVSVVFGGGTQLTVLGQPAA
8 |  | 298 TRF units | CP_01_D12 (scFv, not shown: small tags and cut ends) scFv: EVQLLESGGGVVQPGRSLRLSCAASGFTFSSYAMHWVRQAPGKGLEWVAVISYDGSNKYYADSVKGRFTISRDNSKNTLYLQMNSLRAEDTAVYYCAKGGDTYGFLDNWGQGTMVTVSSGGGGSGGGGSGGGASDIQMTQSPSTLSASVGDRVTITCRASQSISSWLAWYQQKPGKAPKLLIYKASSLESGVPSRFSGSGSGTDFTLTISSLQPEDFATYYCQQFNAYPLTFGGGTKVEIKRTAAA
9 | 544 TRF units |  | CP_03_D09 (scFv, not shown: small tags and cut ends) scFv: EVQLVQSGAEVKKPGSSVKVSCEASGYTFTSYAISWVRQAPGQGLEWMGWMNPNSGNTGYAQKFQGRVTMTRNTSISTAYMELSSLRSEDTAVYYCARVSSYYGMDVWGQGTLVTVSSGGGGSGGGGSGGGASNFMLTQPLSVSESPGKTVTISCTRSSGSIASNYVQWYQQRPGSAPTTVIYEDNQRPSGVPDRFSGSIDSSSNSASLTISGLKTEDEADYYCQSYNSSNHWVFGGGTKVTVLGQPAA
10 | 762 TRF units |  | CP_03_D05 (scFv, not shown: small tags and cut ends) scFv: QVQLVESGAEVKKPGASVKVSCKASGYTFTGYYMHWVRQAPGQGLEWMGRINPNSGGTNYAQKFQGRVTMTRDTSISTAYMELSRLRSDDTAVYYCASPRGRGSAFDIWGQGTLVTVSSGGGGSGGGGSGGGASSYELTQPPSVSVSPGQTATISCSGDQLGGKYGHWYQKKPGQSPVLVLYQDRKRPAGIPERFSGSSSGNTITLTISGTQAVDEADYYCQAWDTNLGGVFGGGTKVTVLGQPAA
11 | 1680 TRF units |  | CP_03_F10 (scFv, not shown: small tags and cut ends) scFv: EVQLVESGAEVKKPGASVKVSCKASGYTFTGYYMHWVRQAPGQGLEWMGRINPNSGGTNYAQKFQGRVTMTRDTSISTAYMELSSLRSEDTAVYYCARFGERYAFDIWGQGTLVTVSSGGGGSGGGGSGGGASQSELTQPPSASGSPGQSVTISCTGTSTDVGAFHFVSWYQHTPGKAPKLLISEVRKRASGVPDRFSGSRSGNTASLTVSGLQSEDEADYFCSAYTGSNYVFGSGTKLTVLGQPAA
